Here are results for seven molecules from patent publication US20170081400A1 (CEPHALON, published 2017).

Assay [1] concerns the target T1, human TL1A extracellular domain with N-terminal HIS and FLAG tag (human, UniProt O95150 72-251).
T1 construct: the whole entry is named; also called TNFSF15
T1 sequence: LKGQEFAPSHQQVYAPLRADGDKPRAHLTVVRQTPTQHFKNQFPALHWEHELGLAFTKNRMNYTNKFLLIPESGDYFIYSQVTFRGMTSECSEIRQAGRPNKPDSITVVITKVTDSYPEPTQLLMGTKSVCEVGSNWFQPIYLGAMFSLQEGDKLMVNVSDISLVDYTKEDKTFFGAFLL
Kind of assay: SPR Run 7, antibody on Protein A, TL1A 5 ug/mL, timepoint 44. An excerpt: (§1) 1.5. Antibody expression and antigen binding as determined by SPR. Using a CM5 sensor chip (GE Healthcare) Protein A (Pierce) was coupled to the chip surface using an amine coupling kit (GE Healthcare). Protein A was coupled on flow cell 1 and 2 (or alternatively 3 and 4) using a BIACORE® T200. […] The amount of supernatant or purified protein (as well as the concentration) injected during the capture stage varied between runs and is specified in the header of the Tables 3-11. At the end of injection of the supernatant or purified antibody the change in response units was measured. This value was reported as Capture Level in Tables 3-11. […] The response units were measured prior to the end of the dissociation phase. […] The sensorgrams were double referenced (flow cell 2 is subtracted from flow cell 1 and a buffer blank). As there were a large number of antibody variants to screen, these were screened across different runs (Tables 3-11). […] A summary of the conditions used in each run is below:
(§2) 2.1. […] In some experiment the antibodies were purified using Protein A chromatography (See 1.4) and purified antibodies were used in BIACORE® (GE Healthcare) experiments.

Assay [2] deals with T1, human TL1A extracellular domain with …. In words: SPR Run 7, antibody on Protein A, TL1A 5 ug/mL, timepoint 220.
Text: as §1, §2

B1: 320-541 (antibody, human IgG1, name in Kabat numbering, V domains shown)
VH: QVQLVQSGAEVKKPGASVKVSCKASGYTFTSYDINWVRQAPGQGLEWMGWLNPNSGQTGYAQKFQGRVTMTADRSTSTAYMELSSLRSEDTAVYYCAREVPETAAFEYWGQGTLVTVSS
VL: QSVLTQPPSVSGAPGQRVTISCTSSSSDIGAGLGVHWYQQLPGTAPKLLIEGYYNRPSGVPDRFSGSKSGTSASLTITGLLPEDEGDYYCQSYDGTLSALFGGGTKLTVLG
notes: full-length human IgG1, lambda
Regarding B1, the “TL1A Binding Level (Early)” value in assay [1] was 94 RU. For the same molecule, the “TL1A Binding Level (Late)” value in assay [2] was 84 RU.

B2: 320-548 (antibody, human IgG1, name in Kabat numbering, V domains shown)
VH: QVQLVQSGAEVKKPGASVKVSCKASGYTFTSYDINWVRQAPGQGLEWMGWLNPNSGNAGYAQKFQGRVTMTADRSTSTAYMELSSLRSEDTAVYYCAREVPETAAFEYWGQGTLVTVSS
VL: QSVLTQPPSVSGAPGQRVTISCTSSSSDIGAGLGVHWYQQLPGTAPKLLIEGYYNRPSGVPDRFSGSKSGTSASLTITGLLPEDEGDYYCQSYDGTLSALFGGGTKLTVLG
notes: as for B1
Consider B2, for which the “TL1A Binding Level (Early)” value in assay [1] turned out to be 74 RU. For the same molecule, the “TL1A Binding Level (Late)” value in assay [2] was found to be 68 RU.

B3: 320-544 (antibody, human IgG1, name in Kabat numbering, V domains shown)
VH: QVQLVQSGAEVKKPGASVKVSCKASGYTFTSYDINWVRQAPGQGLEWMGWLNPNSGKTGYAQKFQGRVTMTADRSTSTAYMELSSLRSEDTAVYYCAREVPETAAFEYWGQGTLVTVSS
VL: QSVLTQPPSVSGAPGQRVTISCTSSSSDIGAGLGVHWYQQLPGTAPKLLIEGYYNRPSGVPDRFSGSKSGTSASLTITGLLPEDEGDYYCQSYDGTLSALFGGGTKLTVLG
notes: as for B1
Consider B3, for which the “TL1A Binding Level (Early)” value in assay [1] was determined as 120 RU. Moreover, the “TL1A Binding Level (Late)” value in assay [2] is 112 RU.

B4: 320-542 (antibody, human IgG1, name in Kabat numbering, V domains shown)
VH: QVQLVQSGAEVKKPGASVKVSCKASGYTFTSYDINWVRQAPGQGLEWMGWLNPNSGDTGYAQKFQGRVTMTADRSTSTAYMELSSLRSEDTAVYYCAREVPETAAFEYWGQGTLVTVSS
VL: QSVLTQPPSVSGAPGQRVTISCTSSSSDIGAGLGVHWYQQLPGTAPKLLIEGYYNRPSGVPDRFSGSKSGTSASLTITGLLPEDEGDYYCQSYDGTLSALFGGGTKLTVLG
notes: as for B1
As to B4, the “TL1A Binding Level (Early)” value in assay [1] turned out to be 97 RU. In assay [2], the “TL1A Binding Level (Late)” value is 86 RU.

B5: 320-543 (antibody, human IgG1, name in Kabat numbering, V domains shown)
VH: QVQLVQSGAEVKKPGASVKVSCKASGYTFTSYDINWVRQAPGQGLEWMGWLNPNSGHTGYAQKFQGRVTMTADRSTSTAYMELSSLRSEDTAVYYCAREVPETAAFEYWGQGTLVTVSS
VL: QSVLTQPPSVSGAPGQRVTISCTSSSSDIGAGLGVHWYQQLPGTAPKLLIEGYYNRPSGVPDRFSGSKSGTSASLTITGLLPEDEGDYYCQSYDGTLSALFGGGTKLTVLG
notes: as for B1
B5: the “TL1A Binding Level (Early)” value in assay [1] is 138 RU. In assay [2], the “TL1A Binding Level (Late)” value came out at 126 RU.

B6: 320-546 (antibody, human IgG1, name in Kabat numbering, V domains shown)
VH: QVQLVQSGAEVKKPGASVKVSCKASGYTFTSYDINWVRQAPGQGLEWMGWLNPNSGWTGYAQKFQGRVTMTADRSTSTAYMELSSLRSEDTAVYYCAREVPETAAFEYWGQGTLVTVSS
VL: QSVLTQPPSVSGAPGQRVTISCTSSSSDIGAGLGVHWYQQLPGTAPKLLIEGYYNRPSGVPDRFSGSKSGTSASLTITGLLPEDEGDYYCQSYDGTLSALFGGGTKLTVLG
notes: as for B1
For B6, the “TL1A Binding Level (Early)” value in assay [1] stood at 67 RU. Further, the “TL1A Binding Level (Late)” value in assay [2] stood at 61 RU.

B7: 320-545 (antibody, human IgG1, name in Kabat numbering, V domains shown)
VH: QVQLVQSGAEVKKPGASVKVSCKASGYTFTSYDINWVRQAPGQGLEWMGWLNPNSGLTGYAQKFQGRVTMTADRSTSTAYMELSSLRSEDTAVYYCAREVPETAAFEYWGQGTLVTVSS
VL: QSVLTQPPSVSGAPGQRVTISCTSSSSDIGAGLGVHWYQQLPGTAPKLLIEGYYNRPSGVPDRFSGSKSGTSASLTITGLLPEDEGDYYCQSYDGTLSALFGGGTKLTVLG
notes: as for B1
On to B7, for which, in assay [1], the “TL1A Binding Level (Early)” value was 109 RU. The “TL1A Binding Level (Late)” value in assay [2] worked out at 100 RU.
